Data from patent publication US20160137709A1 (AMRYT PHARMACEUTICALS, published 2016).

T1: chimeric Hu-Leptin/Mu-EPO receptor (human; mouse, UniProt P48357 22-839; P14753 250-507)
T1 sequence (looked up): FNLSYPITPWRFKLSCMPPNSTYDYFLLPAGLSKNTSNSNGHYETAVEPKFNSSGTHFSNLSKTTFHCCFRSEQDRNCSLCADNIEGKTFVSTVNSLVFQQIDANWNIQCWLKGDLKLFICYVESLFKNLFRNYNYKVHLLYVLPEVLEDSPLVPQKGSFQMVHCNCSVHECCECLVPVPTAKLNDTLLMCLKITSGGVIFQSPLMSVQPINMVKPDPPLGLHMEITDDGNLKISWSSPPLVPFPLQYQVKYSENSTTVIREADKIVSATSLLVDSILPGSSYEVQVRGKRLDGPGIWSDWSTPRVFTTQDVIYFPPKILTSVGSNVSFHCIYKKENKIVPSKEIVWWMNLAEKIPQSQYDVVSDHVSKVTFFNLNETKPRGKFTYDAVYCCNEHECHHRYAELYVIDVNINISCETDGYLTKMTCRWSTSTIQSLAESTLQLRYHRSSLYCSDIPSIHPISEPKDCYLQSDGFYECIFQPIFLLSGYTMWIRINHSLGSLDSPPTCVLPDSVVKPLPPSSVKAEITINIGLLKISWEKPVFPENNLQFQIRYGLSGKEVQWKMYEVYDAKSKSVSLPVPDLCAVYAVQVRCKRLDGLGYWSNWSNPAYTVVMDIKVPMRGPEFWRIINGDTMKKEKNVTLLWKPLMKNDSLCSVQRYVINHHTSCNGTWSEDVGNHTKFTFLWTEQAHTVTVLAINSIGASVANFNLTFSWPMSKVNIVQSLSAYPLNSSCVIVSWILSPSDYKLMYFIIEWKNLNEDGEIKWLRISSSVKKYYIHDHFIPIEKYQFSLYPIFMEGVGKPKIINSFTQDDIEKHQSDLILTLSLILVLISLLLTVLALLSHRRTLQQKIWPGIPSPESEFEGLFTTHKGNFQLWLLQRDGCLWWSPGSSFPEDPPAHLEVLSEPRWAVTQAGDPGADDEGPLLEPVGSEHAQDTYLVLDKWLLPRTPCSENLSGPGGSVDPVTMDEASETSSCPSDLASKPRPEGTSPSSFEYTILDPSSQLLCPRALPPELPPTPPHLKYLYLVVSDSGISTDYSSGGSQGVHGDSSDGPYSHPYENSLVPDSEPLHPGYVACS


What was measured:
[1] = target: T1, chimeric Hu-Leptin/Mu-EPO receptor; assay: cell-based or functional assay
[2] = target: T2, Monkey serum albumin (monkey); assay: SPR (BioRad ProteOn XPR36), albumin amine-coupled on GLC chip, polypeptide as analyte, 25 C
T2 construct: Amine-coupled to the GLC sensor chip; also called Monkey SA
T2 sequence (A2V9Z4 25-608): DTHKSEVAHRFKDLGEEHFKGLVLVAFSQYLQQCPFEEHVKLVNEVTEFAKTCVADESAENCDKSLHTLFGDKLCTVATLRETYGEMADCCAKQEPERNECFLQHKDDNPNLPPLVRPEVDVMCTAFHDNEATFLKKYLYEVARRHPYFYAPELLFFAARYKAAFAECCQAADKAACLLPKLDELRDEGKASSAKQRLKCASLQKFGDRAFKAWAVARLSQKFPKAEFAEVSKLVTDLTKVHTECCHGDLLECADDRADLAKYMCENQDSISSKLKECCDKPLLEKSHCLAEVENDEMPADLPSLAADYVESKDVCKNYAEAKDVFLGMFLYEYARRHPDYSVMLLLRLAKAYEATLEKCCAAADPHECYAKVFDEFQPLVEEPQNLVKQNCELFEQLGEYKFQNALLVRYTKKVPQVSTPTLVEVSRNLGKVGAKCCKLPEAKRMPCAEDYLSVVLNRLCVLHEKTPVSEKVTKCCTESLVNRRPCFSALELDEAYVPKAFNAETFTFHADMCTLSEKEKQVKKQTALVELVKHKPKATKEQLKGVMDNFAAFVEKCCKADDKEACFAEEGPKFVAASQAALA
Method: (§1) All studies were conducted on a BioRad ProteOn XPR36 system using a GLC sensor chip at 25 degrees C. For amine coupling the GLC chip was activated for 5 minutes using a 1:1 mixture of sulfo-NHS/EDC diluted 30-fold from the initial stock in water as shown below. Each albumin sample was diluted to 25 ug/ml in 10 mM Na Acetate pH 5.0 and injected for 5 minutes over separate sensor surfaces. Each surface was then blocked with 1 M ethanolamine pH 8.5. Each albumin was coupled at a density of 2000-5000 in resonance units.
(§2) The binding of an engineered polypeptide was tested using 5 nM as the highest concentration in a three-fold dilution series. The running buffer contained 10 mM HEPES pH 7.4, 150 mM NaCl, 3 mM EDTA and 0.005% tween-20. All samples were tested using a 3-fold dilution series. Each concentration series was tested in duplicate. The dissociation phase for the highest concentration was monitored for 3 hours.

[3] = target: T3, Mouse serum albumin (mouse, UniProt P07724 25-608); assay: as above
T3 construct: Amine-coupled to the GLC sensor chip; also called Mouse SA
Method: as §1, §2

[4] = target: T4, Rat serum albumin (rat, UniProt P02770 25-608); assay: as above
T4 construct: Amine-coupled to the GLC sensor chip; also called Rat SA; RSA
T4 sequence (P02770 25-608 limits assumed): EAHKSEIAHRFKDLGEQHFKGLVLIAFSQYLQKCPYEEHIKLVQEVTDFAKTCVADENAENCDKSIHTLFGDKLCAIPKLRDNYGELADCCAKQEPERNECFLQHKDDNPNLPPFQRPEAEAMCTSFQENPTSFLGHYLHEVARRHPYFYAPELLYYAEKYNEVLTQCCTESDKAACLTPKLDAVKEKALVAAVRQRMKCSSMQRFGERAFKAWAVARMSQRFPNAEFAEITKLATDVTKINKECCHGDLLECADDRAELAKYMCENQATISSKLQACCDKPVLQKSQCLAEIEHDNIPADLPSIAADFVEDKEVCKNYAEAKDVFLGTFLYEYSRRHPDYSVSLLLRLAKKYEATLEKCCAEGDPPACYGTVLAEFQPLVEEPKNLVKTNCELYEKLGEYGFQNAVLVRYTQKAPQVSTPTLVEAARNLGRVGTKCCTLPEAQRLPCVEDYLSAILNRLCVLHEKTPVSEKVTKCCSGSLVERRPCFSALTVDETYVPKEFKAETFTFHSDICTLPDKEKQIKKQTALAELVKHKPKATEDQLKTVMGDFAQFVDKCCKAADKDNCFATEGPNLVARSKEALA
Method: as §1, §2

[5] = target: T5, Dog serum albumin (dog, UniProt P49822 25-608); assay: as above
T5 construct: Amine-coupled to the GLC sensor chip; also called Dog SA
T5 sequence (P49822 25-608 limits assumed): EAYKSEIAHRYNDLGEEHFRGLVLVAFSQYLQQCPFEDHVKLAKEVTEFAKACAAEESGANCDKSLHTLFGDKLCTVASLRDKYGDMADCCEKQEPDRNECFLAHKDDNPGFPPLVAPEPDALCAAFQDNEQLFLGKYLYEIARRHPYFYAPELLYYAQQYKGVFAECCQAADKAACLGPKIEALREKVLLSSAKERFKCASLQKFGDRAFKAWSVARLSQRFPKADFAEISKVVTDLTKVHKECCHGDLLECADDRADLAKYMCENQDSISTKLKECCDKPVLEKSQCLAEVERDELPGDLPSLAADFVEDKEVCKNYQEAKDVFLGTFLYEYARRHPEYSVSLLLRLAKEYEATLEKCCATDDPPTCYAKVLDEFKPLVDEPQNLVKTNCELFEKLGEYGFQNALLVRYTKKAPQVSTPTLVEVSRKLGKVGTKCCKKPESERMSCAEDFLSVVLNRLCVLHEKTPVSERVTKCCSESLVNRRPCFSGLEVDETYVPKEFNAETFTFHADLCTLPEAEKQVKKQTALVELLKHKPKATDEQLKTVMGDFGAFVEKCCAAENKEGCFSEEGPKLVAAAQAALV
Method: as §1, §2

[6] = target: T6, Human serum albumin (human, UniProt P02768 25-609); assay: as above
T6 construct: Amine-coupled to the GLC sensor chip; also called Human SA; HSA
T6 sequence (P02768 25-609 limits assumed): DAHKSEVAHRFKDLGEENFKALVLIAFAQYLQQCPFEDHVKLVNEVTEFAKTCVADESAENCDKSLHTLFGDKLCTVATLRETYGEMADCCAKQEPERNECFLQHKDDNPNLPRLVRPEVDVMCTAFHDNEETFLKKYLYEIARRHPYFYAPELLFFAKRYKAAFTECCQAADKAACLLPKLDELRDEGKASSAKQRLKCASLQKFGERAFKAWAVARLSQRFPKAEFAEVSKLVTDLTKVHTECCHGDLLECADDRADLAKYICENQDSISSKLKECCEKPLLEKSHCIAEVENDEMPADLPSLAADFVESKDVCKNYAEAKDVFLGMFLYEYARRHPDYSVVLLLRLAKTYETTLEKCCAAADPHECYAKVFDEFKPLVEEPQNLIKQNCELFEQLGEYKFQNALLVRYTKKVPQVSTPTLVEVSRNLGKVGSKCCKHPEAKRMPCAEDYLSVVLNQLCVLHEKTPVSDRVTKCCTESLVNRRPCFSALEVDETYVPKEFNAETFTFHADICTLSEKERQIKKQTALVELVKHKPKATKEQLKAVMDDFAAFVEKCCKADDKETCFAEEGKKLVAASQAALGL
Method: as §1, §2

Binder | EC50 nM (Obeca STAT5 assay) [1] | Kd [2] | Kd [3] | Kd [4] | Kd [5] | Kd [6]
Cmpd 4 (SEQ ID NO: 56) (other) MVPIQKVQDDTKTLIKTIVTRINDISHTQSVSSKQKVTGLEFIPGLHPILTLSKMDQTLAVYQQILTSMPSRNVIQISNDLENLRDLLHVLAFSKSCHLPQASGLETLESLGGVLEASGYSTEVVALSRLQGSLQDMLQQLDLSPGCTGGGGSGGGSGGGSGGGSASLAEAKVLANRELDKYGVSDFYKRLINKAKTVEGVEALKLHILAALP | 0.103 nM |  |  |  |  | 
Cmpd 9 (SEQ ID NO: 57) (other) MLAEAKVLANRELDKYGVSDFYKRLINKAKTVEGVEALKLHILAALPTGGGGSGGGSGGGSGGGSASISIEKIQADTKTLTKTIITRIIQLSTQNGVSTDQRVSGLDFIPGNQQFQNLADMDQTLAVYQQILSSLPMPDRTQISNDLENLRSLFALLATLKNCPFTRSDGLDTMEIWGGIVEESLYSTEVVTLDRLRKSLKNIEKQLDHIQGC | 0.185 nM |  |  |  |  | 
Cmpd 1 (SEQ ID NO: 53) (other) MLAEAKVLANRELDKYGVSDFYKRLINKAKTVEGVEALKLHILAALPTGGGGASVPIQKVQDDTKTLIKTIVTRINDISHTQSVSSKQKVTGLEFIPGLHPILTLSKMDQTLAVYQQILTSMPSRNVIQISNDLENLRDLLHVLAFSKSCHLPQASGLETLESLGGVLEASGYSTEVVALSRLQGSLQDMLQQLDLSPGC | 0.628 nM |  |  |  |  | 
Cmpd 14 (SEQ ID NO: 60) (other) MLAEAKVLANRELDKYGVSDFYKRLINKAKTVEGVEALKLHILAALPTGGGGSGGGSGGGSGGGSASPIQRVQDDTKTLIKTIITRINDISPPQGVCSRPRVAGLDFIPRVQSVRTLSGMDQILATYQQILTSLQSRNVIQISNDLENLRDLLHVLAFSKSCPVPRARGSDTIKGLGNVLRASVHSTEVVALSRLKAALQDMLRQLDRNPGC | 0.406 nM |  |  |  |  | 
Cmpd 3 (SEQ ID NO: 55) (other) MVPIQKVQDDTKTLIKTIVTRINDISHTQSVSSKQKVTGLEFIPGLHPILTLSKMDQTLAVYQQILTSMPSRNVIQISNDLENLRDLLHVLAFSKSCHLPQASGLETLESLGGVLEASGYSTEVVALSRLQGSLQDMLQQLDLSPGCTGGGGSASLAEAKVLANRELDKYGVSDFYKRLINKAKTVEGVEALKLHILAALP | 0.095 nM |  |  |  |  | 

Further lines, results first:

EC50 nM (Obeca STAT5 assay) [1] | Kd [2] | Kd [3] | Kd [4] | Kd [5] | Kd [6] | Binder
0.322 nM |  |  |  |  |  | Cmpd 18 (SEQ ID NO: 64) (other) MLAEAKVLANRELDKYGVSDYYKNIINRAKTVEGVRALKLHILAALPTGGGGSGGGSGGGSGGGSASVPIQKVQDDTKTLIKTIVTRINDISHTQSVSSKQKVTGLEFIPGLHPILTLSKMDQTLAVYQQILTSMPSRNVIQISNDLENLRDLLHVLAFSKSCHLPQASGLETLESLGGVLEASGYSTEVVALSRLQGSLQDMLQQLDLSPGC
0.53 nM | 0.158 nM | 1.97 nM | 0.033 nM | 0.358 nM | 0.056 nM | Compound 2 (SEQ ID NO: 54) (other, also called Cmpd 2; ABD1-A500) MLAEAKVLANRELDKYGVSDFYKRLINKAKTVEGVEALKLHILAALPTGGGGSGGGSGGGSGGGSASVPIQKVQDDTKTLIKTIVTRINDISHTQSVSSKQKVTGLEFIPGLHPILTLSKMDQTLAVYQQILTSMPSRNVIQISNDLENLRDLLHVLAFSKSCHLPQASGLETLESLGGVLEASGYSTEVVALSRLQGSLQDMLQQLDLSPGC
0.411 nM |  |  |  |  |  | Cmpd 16 (SEQ ID NO: 62) (other) MLAEAKVLANRELDKYGVSDFYKRLINKAKTVEGVEALKLHILAALPTGPIQRVQDDTKTLIKTIITRINDISPPQGVCSPRVAGLDFIPRVQSVRTLSGMDQILATYQQILTSLQSRNVIQISNDLENLRDLLHVLAFSKSCPVPRARGSDTIKGLGNVLRASVHSTEVVALSRLKAALQDMLRQLDRNPGC
0.427 nM | 0.017 nM | 0.277 nM | < 0.002 nM | 0.04 nM | 0.012 nM | Compound 15 (SEQ ID NO: 61) (other, also called Cmpd 15; ABD1-HuSeal) MLAEAKVLANRELDKYGVSDFYKRLINKAKTVEGVEALKLHILAALPTGGGGSGGGSGGGSGGGSASPIQRVQDDTKTLIKTIITRINDISPPQGVSSRPRVAGLDFIPRVQSVRTLSGMDQILATYQQILTSLQSRNVIQISNDLENLRDLLHVLAFSKSCPVPRARGSDTIKGLGNVLRASVHSTEVVALSRLKAALQDMLRQLDRNPGC
